Measured values from patent CN114573691A (EIGHT HOSPITALS IN AFFILIATED CITY OF GUANGZHOU MEDICAL; …, dated 2022).

B1: 中和抗体YB9-258 (antibody, V domains shown)
VH: EVQLVESGGGLIQPGGSLRLSCAASGLTVSSNYMHWVRQAPGKGLEWVSVLYAGGSAFYADSVKGRFTISRNNSKNTLYLQMNSLRAEDTAIYYCARGLGDYLDSWGQGTLVTVSS
VL: DIQMTQSPSSVSASVGDRVTITCRASQGIGSWLAWYQQKPGKAPQLLIYAASTLQSGVPPRFSGSGSGTDFTLTITSLQPEDFASYYCQQANSVLALTFGGGTKVEIK
B2: 中和抗体YB13-208 (antibody, V domains shown)
V domain 1: QITLKESGPTLVKPTQTLTLTCTFSGLSLSTSGVSVGWIRQPPGKAPEWLALIYWDDDKRYSPSLTSRLSITKDTSKNQVVLTMTNMDPVDTATYYCAHPRYYGDSSGYYWIWGQGTMVTVSS
V domain 2: SYELTQPPSVSVSPGQTARITCSGDALPKQYAYWYQQKPGQAPVVVMYKTSERPSGIPERFSGSSSGTTVTLTISGVQAEDEADYYCQSADSSGFYVFGTGTQVTVL

Molecular target: 新冠病毒SARS-CoV-2原始毒株(WT)S1抗原 (SARS-CoV-2, UniProt P0DTC2 16-685)

Binder	Kd [nM]
B1	0.0717
B2	0.082
